Measurements published in patent US20160130302A1.
Positions of bridges follow the written chain, without caps; N, C: chain ends. Chains are numbered I, II in the order given. No end group written: not given here.

Columns and labels:
[1] = tested on: T1, ψPDK peptide (ALSTER), non-TAT conjugated
T1 sequence: ALSTER

[2] = tested on: ψPDK-Cs-sC-TAT (ψPDK linked to TAT47-57 by a disulfide bond)
[3] = target: rat δPKC (endogenous, in perfused rat hearts) (rat) (UniProt P09215); experiment: cell-based or functional assay
Sequence of rat δPKC (endogenous, in perfused rat hearts) (rat) (P09215 whole entry, stated change not applied, the tested form may be a part): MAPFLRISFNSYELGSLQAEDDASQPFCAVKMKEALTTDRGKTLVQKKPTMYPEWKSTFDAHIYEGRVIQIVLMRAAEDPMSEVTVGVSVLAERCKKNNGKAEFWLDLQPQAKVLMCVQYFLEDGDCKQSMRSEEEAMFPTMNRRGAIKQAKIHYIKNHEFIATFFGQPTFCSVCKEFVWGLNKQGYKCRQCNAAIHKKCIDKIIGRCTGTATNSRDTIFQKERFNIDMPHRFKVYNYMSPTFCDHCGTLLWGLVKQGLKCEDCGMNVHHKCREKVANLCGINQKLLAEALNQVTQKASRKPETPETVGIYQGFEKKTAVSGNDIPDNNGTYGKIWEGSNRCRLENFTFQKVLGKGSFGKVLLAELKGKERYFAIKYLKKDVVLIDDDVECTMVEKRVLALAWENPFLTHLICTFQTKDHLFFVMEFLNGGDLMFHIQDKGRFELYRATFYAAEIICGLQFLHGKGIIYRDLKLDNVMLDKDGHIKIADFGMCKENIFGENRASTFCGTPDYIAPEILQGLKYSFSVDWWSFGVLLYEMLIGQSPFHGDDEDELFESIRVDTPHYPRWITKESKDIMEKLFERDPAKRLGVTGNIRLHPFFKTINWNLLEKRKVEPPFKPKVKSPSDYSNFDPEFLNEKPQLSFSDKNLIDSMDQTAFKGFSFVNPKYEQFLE

[4] = target: rat δPKC (endogenous, in perfused rat hearts) (rat), P09215; experiment: cell-based or functional assay
Sequence of rat δPKC (endogenous, in perfused rat hearts) (rat), P09215 (P09215 whole entry, stated change not applied, the tested form may be a part): as above

human recombinant δPKC (Invitrogen)
in vitro phosphorylation of Drp1 by δPKC [1]: ψPDK did not affect Drp1 phosphorylation
δPKC phosphorylation of PDK (in vitro kinase assay) [1]: ψPDK inhibited δPKC phosphorylation of PDK by ˜30%

mouse δPKC (endogenous, in fibroblasts from wild-type mice)
MARCKS phosphorylation in wild-type fibroblasts [2]: increased MARCKS phosphorylation relative to the control peptide

p192 (AASTER), TAT-conjugated (peptide)
CPK (u/L) [3]: 1270 u/L
p-JNK/total JNK [3]: 0.7

p193 (ALATER), TAT-conjugated (peptide)
CPK (u/L) [3]: 1160 u/L
p-JNK/total JNK [3]: 0.7

p194 (ALSAER), TAT-conjugated (peptide)
CPK (u/L) [3]: 886 u/L
p-JNK/total JNK [3]: 0.6

p195 (ALSTAR), TAT-conjugated (peptide)
CPK (u/L) [3]: 913 u/L
p-JNK/total JNK [3]: 0.7

p196 (ALSTEA), TAT-conjugated (peptide)
CPK (u/L) [3]: 926 u/L
p-JNK/total JNK [3]: 0.9

p197 (ALST(p)ER), TAT-conjugated (peptide)
CPK (u/L) [3]: 803 u/L
p-JNK/total JNK [3]: 0.7

p198 (ALS(p)TER), TAT-conjugated (peptide)
CPK (u/L) [3]: 1170 u/L
p-JNK/total JNK [3]: 0.9

p199 (ALS(p)T(p)ER), TAT-conjugated (peptide)
CPK (u/L) [3]: 842 u/L
p-JNK/total JNK [3]: 0.6

rat δPKC (endogenous, in perfused rat hearts)
I/R-induced MARCKS phosphorylation in hearts [2]: an increase in I/R-induced MARCKS phosphorylation was observed in the presence of ψPDK, as compared with control peptide
phosphorylation of PDK2 and of the E1 subunit of PDH after I/R (2-D IEF) [2]: the phosphorylation of those two enzymes (shown by a shift to acidic pH by 2-D IEF analysis) did not occur in the presence of either ψPDK or in the presence of δV1-1

B1: ψPDK-Cs-sC-TAT (ψPDK linked to TAT47-57 by a disulfide bond) (peptide)
peptide: ALSTERC-NH2
chain: YGRKKRRQRRRC-NH2
modifications: disulfide I:7-II:12; N-terminus assumed
SMILES: CC(C)C[C@H](NC(=O)[C@H](C)N)C(=O)N[C@@H](CO)C(=O)N[C@H](C(=O)N[C@@H](CCC(=O)O)C(=O)N[C@@H](CCCNC(=N)N)C(=O)N[C@@H](CSSC[C@H](NC(=O)[C@H](CCCNC(=N)N)NC(=O)[C@H](CCCNC(=N)N)NC(=O)[C@H](CCCNC(=N)N)NC(=O)[C@H](CCC(N)=O)NC(=O)[C@H](CCCNC(=N)N)NC(=O)[C@H](CCCNC(=N)N)NC(=O)[C@H](CCCCN)NC(=O)[C@H](CCCCN)NC(=O)[C@H](CCCNC(=N)N)NC(=O)CNC(=O)[C@@H](N)Cc1ccc(O)cc1)C(N)=O)C(N)=O)[C@@H](C)O
CPK (u/L) [4]: 335 u/L
p-JNK/total JNK [4]: 0.4
δPKC association with the mitochondria after I/R [4]: 2 fold
